Experimental data: publication PMC8451032

Molecular target: m971 scFv with short (GGGGS) linker
Test: SEC

- stoichiometry N: 2
Substance: m971 scFv with short (GGGGS) linker
